± gives the uncertainty stated by the source.
Experiment: self-splicing fitness, log relative to wild type (ln ratio); higher = more splicing; Tetrahymena group I intron in knt gene, E. coli kanamycin selection, DiMSum; sequences stand for … in CUCUCU…GGAGGGAAAAGUUAUCAGGCAUGCACCUGGUAGCUAGUCUUUAAACCAAUAGAUUGCAUCGGUUUAAAAGGCAAGACCGUCAAAUUGCGGGAAAGGGGUCAACAGCCGUUCAGUACCAAGUCUCAGGGGAAACUUUGAGAUGGCCUUGCAAAGGGUAUGGUAAUAAGCUGACGGACAUGGUCCUAACCACGCAGCCAAGUCCUAAGUCAACAGAUCUUCUGUUGAUAUGGAUGCAGUUCACAGACUAAAUGUCGGUCGGGGAAGAUGUAUUCUUCUCAUAAGAUAUAGUCGGACCUCUCCUUAAUGGGAGCUAGCGGAUGAAGUGAUGCAACACUGGAGCCGCUGGGAACUAAUUUGUAUGCGAAAGUAUAUUGAUUAGUUUUGGAGUACUCGUGGUCG
Method in brief: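 DiMSum derived fitness as the error-weighted combination of fold changes across replicates, kanamycin versus no kanamycin, normalised to wild type. E. coli BL21(DE3) held the library, which randomised all eight P1ex-region intron nucleotides within the knt kanamycin-resistance gene on pET-22b(+). Six replicate transformations grew overnight at 37°C or 30°C on LB agar with or without 25 μg/mL kanamycin, also containing 100 μg/mL carbenicillin, 50 μM IPTG and 0.2% rhamnose, and pooled colonies were amplicon-sequenced on an Illumina HiSeq 2500.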

Sequence	self-splicing fitness (ln) (30 °C)	self-splicing fitness (ln) (37 °C)
UUAGAGCAAUAUUACGUCUA	-0.712 ± 0.071	-0.109 ± 0.11
UUAGAGCAAUAUUACGUUUU	-3.39 ± 0.32	-2.3 ± 0.27
UUAUAGCAAUAUUACGAAUC	-2.06 ± 0.4	-1.85 ± 0.48
UUAUAGCAAUAUUACGACUA	-0.12 ± 0.23	-0.299 ± 0.2
UUAUAGCAAUAUUACGAGGG	-3.47 ± 0.26	-2.3 ± 0.27
UUAUAGCAAUAUUACGAGUG	-1.06 ± 0.11	-1.32 ± 0.2
UUAUAGCAAUAUUACGAUUU	-1.23 ± 0.11	-0.501 ± 0.13
UUAUAGCAAUAUUACGCACU	-1.15 ± 0.16	-0.214 ± 0.21
UUAUAGCAAUAUUACGCCCG	-1.45 ± 0.36	–
UUAUAGCAAUAUUACGCUGA	-2.17 ± 0.14	-0.624 ± 0.13
UUAUAGCAAUAUUACGGUCG	-0.705 ± 0.11	0.176 ± 0.15
UUAUAGCAAUAUUACGGUUU	-1.66 ± 0.1	-1.09 ± 0.12
UUAUAGCAAUAUUACGUCGU	-3.1 ± 0.3	–
UUAUAGCAAUAUUACGUUAG	-1.1 ± 0.12	-0.717 ± 0.14
UUAUAGCAAUAUUACGUUGU	-3.44 ± 0.27	-2.38 ± 0.23
UUCAAGCAAUAUUACGAAAC	-2.77 ± 0.31	-2.89 ± 0.35
UUCAAGCAAUAUUACGAGCU	-2.99 ± 0.23	-1.33 ± 0.18
UUCAAGCAAUAUUACGCAGG	-2.71 ± 0.14	-1.78 ± 0.13
UUCAAGCAAUAUUACGCGGA	-2.64 ± 0.16	-2.09 ± 0.15
UUCAAGCAAUAUUACGCGUC	-2.89 ± 0.15	-0.969 ± 0.16
UUCAAGCAAUAUUACGGAUC	-1.5 ± 0.25	-2.84 ± 0.21
UUCAAGCAAUAUUACGGCAA	0.101 ± 0.1	0.0563 ± 0.11
UUCAAGCAAUAUUACGGGCC	–	-2.94 ± 0.48
UUCAAGCAAUAUUACGGGGC	-3.6 ± 0.27	-2.8 ± 0.33

Sequence	self-splicing fitness (ln) (30 °C)	self-splicing fitness (ln) (37 °C)
UUCAAGCAAUAUUACGGGGG	-3.34 ± 0.26	-0.739 ± 0.16
UUCAAGCAAUAUUACGGGUG	-0.476 ± 0.045	-0.593 ± 0.06
UUCAAGCAAUAUUACGGUGU	-2.98 ± 0.18	-2.49 ± 0.17
UUCAAGCAAUAUUACGUACC	–	-1.69 ± 0.2
UUCAAGCAAUAUUACGUAGC	-4.06 ± 0.26	-2.3 ± 0.25
UUCAAGCAAUAUUACGUAUA	-1.48 ± 0.1	-0.136 ± 0.096
UUCAAGCAAUAUUACGUCUC	-3.33 ± 0.26	-1.74 ± 0.18
UUCAAGCAAUAUUACGUGAA	-0.675 ± 0.089	-0.479 ± 0.12
UUCAAGCAAUAUUACGUUAG	-3.23 ± 0.12	-1.32 ± 0.089
UUCAAGCAAUAUUACGUUGU	-3.87 ± 0.19	-1.34 ± 0.12
UUCCAGCAAUAUUACGAAGA	-0.997 ± 0.11	-0.671 ± 0.1
UUCCAGCAAUAUUACGAAGC	-2.59 ± 0.32	-1.92 ± 0.26
UUCCAGCAAUAUUACGAAUA	-1.24 ± 0.15	-0.772 ± 0.16
UUCCAGCAAUAUUACGACCA	-0.177 ± 0.26	-0.862 ± 0.23
UUCCAGCAAUAUUACGACGA	-0.529 ± 0.12	0.216 ± 0.15
UUCCAGCAAUAUUACGACUC	-3.04 ± 0.24	-1.67 ± 0.19
UUCCAGCAAUAUUACGAUCG	-2.6 ± 0.12	-1.04 ± 0.14
UUCCAGCAAUAUUACGCAAA	-1.42 ± 0.12	-0.0764 ± 0.13
UUCCAGCAAUAUUACGCAGU	-3.23 ± 0.17	-2.79 ± 0.28
UUCCAGCAAUAUUACGCGUG	-1.43 ± 0.069	-0.516 ± 0.073
UUCCAGCAAUAUUACGCUUC	-4.08 ± 0.24	-2.58 ± 0.18
UUCCAGCAAUAUUACGCUUG	-2.97 ± 0.21	-1.94 ± 0.22
UUCCAGCAAUAUUACGGAAG	-2.85 ± 0.19	-2.16 ± 0.2
UUCCAGCAAUAUUACGGACG	-0.4 ± 0.048	0.421 ± 0.077

From the supplement of paper PMC7877785
